Source: publication PMC12008772, “Transcription Factor SsNdt80b Maintains Optimal Expression of SsSNF1 to Modulate Growth and Pathogenicity in Sclerotinia sclerotiorum”

Target: T1, SsNdt80b-His (Sclerotinia sclerotiorum, UniProt A0A1D9PYE1 1-599)
T1 sequence: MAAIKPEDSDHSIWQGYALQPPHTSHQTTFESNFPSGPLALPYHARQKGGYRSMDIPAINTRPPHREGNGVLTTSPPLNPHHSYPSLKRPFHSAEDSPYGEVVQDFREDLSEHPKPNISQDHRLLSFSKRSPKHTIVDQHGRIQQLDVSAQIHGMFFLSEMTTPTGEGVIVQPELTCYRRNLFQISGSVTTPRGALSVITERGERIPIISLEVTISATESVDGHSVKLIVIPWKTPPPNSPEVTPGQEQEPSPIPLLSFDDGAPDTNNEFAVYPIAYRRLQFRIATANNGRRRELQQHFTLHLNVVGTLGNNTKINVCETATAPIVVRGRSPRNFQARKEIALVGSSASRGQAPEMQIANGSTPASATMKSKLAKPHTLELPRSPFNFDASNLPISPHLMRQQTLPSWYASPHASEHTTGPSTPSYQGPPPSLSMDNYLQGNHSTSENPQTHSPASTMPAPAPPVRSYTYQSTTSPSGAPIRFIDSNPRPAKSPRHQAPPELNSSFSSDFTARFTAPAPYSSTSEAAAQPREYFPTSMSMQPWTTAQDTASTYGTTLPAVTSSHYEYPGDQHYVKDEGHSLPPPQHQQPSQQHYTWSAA
Test: EMSA; LightShift Chemiluminescence EMSA Kit binding buffer (composition not given); protein 5 min on ice, then probe 30 min at room temperature; 6% native PAGE
Conditions: protein: recombinant; tags: His; label: 5'-biotin on strand 1; printed biotin strand is 39 nt, reverse strand 40 nt: 1 nt 5' overhang (T) on strand 2; unlabelled forward oligo S65 is 40 nt and blunt with S64

B1: P-SsSNF1 biotin probe (dsDNA)
DNA 1: TGAAGAGCAGCTGGAACCACAAATCAACTTTTCCTTTAA
DNA 2: TTTAAAGGAAAAGTTGATTTGTGGTTCCAGCTGCTCTTCA
B1: binds.
